B3: HGF-α (domain or fragment, UniProt P14210 32-473, looked up)
chain: QRKRRNTIHEFKKSAKTTLIKIDPALKIKTKKVNTADQCANRCTRNKGLPFTCKAFVFDKARKQCLWFPFNSMSSGVKKEFGHEFDLYENKDYIRNCIIGKGRSYKGTVSITKSGIKCQPWSSMIPHEHSFLPSSYRGKDLQENYCRNPRGEEGGPWCFTSNPEVRYEVCDIPQCSEVECMTCNGESYRGLMDHTESGKICQRWDHQTPHRHKFLPERYPDKGFDDNYCRNPDGQPRPWCYTLDPHTRWEYCAIKTCADNTMNDTDVPLETTECIQGQGEGYRGTVNTIWNGIPCQRWDSQYPHEHDMTPENFKCKDLRENYCRNPDGSESPWCFTTDPNIRVGYCSQIPNCDMSHGQDCYRGNGKNYMGNLSQTRSGLTCSMWDKNMEDLHRHIFWEPDASKLNENYCRNPDDDAHGPWCYTGNPLIPWDYCPISRCEGDT

How the values were obtained:
Test in all cases: ELISA
HGF-α = target: B3
Decoy Met = Decoy Met (UniProt P08581 25-932)
IPT = IPT (UniProt P08581 563-932)
active HGF = active HGF (UniProt P14210 32-494; P14210 495-728)
Sequence of active HGF (P14210 495-728, one chain of several): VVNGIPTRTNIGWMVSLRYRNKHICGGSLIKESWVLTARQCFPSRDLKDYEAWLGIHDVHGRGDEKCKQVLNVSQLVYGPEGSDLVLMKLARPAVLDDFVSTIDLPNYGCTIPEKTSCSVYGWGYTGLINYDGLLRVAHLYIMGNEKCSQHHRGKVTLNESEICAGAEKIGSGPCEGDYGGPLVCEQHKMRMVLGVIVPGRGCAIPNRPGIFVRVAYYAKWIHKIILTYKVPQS

B1: IPT Δ1 (domain or fragment, UniProt P08581 657-932, looked up)
chain: PVITSISPKYGPMAGGTLLTLTGNYLNSGNSRHISIGGKTCTLKSVSNSILECYTPAQTISTEFAVKLKIDLANRETSIFSYREDPIVYEIHPTKSFISGGSTITGVGKNLNSVSVPRMVINVHEAGRNFTVACQHRSNSEIICCTTPSLQQLNLQLPLKTKAFFMLDGILSKYFDLIYVHNPVFKPFEKPVMISMGNENVLEIKGNDIDPEAVKGEVLKVGNKSCENIHLHSEAVLCTVPNDLLKLNSELNIEWKQAISSTVLGKVIVQPDQNFT
- binding result (HGF-α): binds

B2: HGF NK1 (domain or fragment, UniProt P14210-1 32-205, looked up)
chain: QRKRRNTIHEFKKSAKTTLIKIDPALKIKTKKVNTADQCANRCTRNKGLPFTCKAFVFDKARKQCLWFPFNSMSSGVKKEFGHEFDLYENKDYIRNCIIGKGRSYKGTVSITKSGIKCQPWSSMIPHEHSFLPSSYRGKDLQENYCRNPRGEEGGPWCFTSNPEVRYEVCDIPQ
- fold reduced affinity compared with active HGF (Decoy Met): 10 fold
- fold less tightly than active HGF (IPT): 10 times

Binder: B3
- fold reduced affinity compared with active HGF (Decoy Met): 4 fold

B4: PSI-IPT (domain or fragment, UniProt P08581 516-932, looked up)
chain: NGLGCRHFQSCSQCLSAPPFVQCGWCHDKCVRSEECLSGTWTQQICLPAIYKVFPNSAPLEGGTRLTICGWDFGFRRNNKFDLKKTRVLLGNESCTLTLSESTMNTLKCTVGPAMNKHFNMSIIISNGHGTTQYSTFSYVDPVITSISPKYGPMAGGTLLTLTGNYLNSGNSRHISIGGKTCTLKSVSNSILECYTPAQTISTEFAVKLKIDLANRETSIFSYREDPIVYEIHPTKSFISGGSTITGVGKNLNSVSVPRMVINVHEAGRNFTVACQHRSNSEIICCTTPSLQQLNLQLPLKTKAFFMLDGILSKYFDLIYVHNPVFKPFEKPVMISMGNENVLEIKGNDIDPEAVKGEVLKVGNKSCENIHLHSEAVLCTVPNDLLKLNSELNIEWKQAISSTVLGKVIVQPDQNFT
- binding result (active HGF): binds

— paper PMC2475716 (The Journal of Biological Chemistry, 2008)
